{"source": "patent US20150004189A1", "binders": {"B1": {"name": "Dac g 2 (11-30) epitope region, Orchard Grass (peptide, UniProt Q41183 11-30, looked up)", "peptide": "GSDEKNLALSIKYNKEGDSM"}, "B2": {"name": "Lol p 2 (51-70) epitope region, Rye Grass (peptide, UniProt P14947 51-70, looked up)", "peptide": "DGVWEIKSDKPLKGPFNFRF"}, "B3": {"name": "Alt a 1 peptide, position 6, Peptide ID 3324.0015 (peptide)", "peptide": "IASLFAAAGLAAAAP", "modifications": "not checked"}, "B4": {"name": "Alt a 1 peptide, position 11, Peptide ID 3324.0017 (peptide)", "peptide": "AAAGLAAAAPLESRQ", "modifications": "not checked"}, "B5": {"name": "Pen ch 13 (271-285) peptide …, Peptide ID 3324.1303 (peptide)", "peptide": "GIFLSVAAGNEAENA", "modifications": "not checked"}, "B6": {"name": "Pen ch 18 (291-305) peptide …, Peptide ID 3324.1331 (peptide)", "peptide": "LDLAVNAAVDAGIHF", "modifications": "not checked"}, "B7": {"name": "Alt a 1 peptide, position 111 (Peptide ID 3324.0013) (peptide)", "peptide": "KVSDDITYVATATLP", "modifications": "not checked"}, "B8": {"name": "Alt a 1 peptide, position 116 (Peptide ID 3324.0014) (peptide)", "peptide": "ITYVATATLPNYCRA", "modifications": "not checked"}, "B9": {"name": "Alt a 1 peptide, position 143 (Peptide ID 3324.0016) (peptide)", "peptide": "VADAYITLVTLPKSS", "modifications": "not checked"}, "B10": {"name": "Pen ch 18 peptide, position 291, … (Peptide ID 3324.1331) (peptide)", "peptide": "LDLAVNAAVDAGIHF", "modifications": "not checked"}}, "key": {"[1]": {"target": "HLA-DR molecules on the donors' cells (locus; alleles not stated)", "test": "cell-based or functional assay"}, "HLA-DR DRB1*0301 (human)": {"target": "T1, HLA-DR DRB1*0301 (human)", "T1 chain 1": "not shown", "T1 chain 2": "not shown", "test": "inhibition of radiolabeled peptide binding to purified HLA class II", "conditions": "remark: other sources report otherwise"}, "[2]": {"target": "T2, HLA-DQ molecule DQB1*0501 (human)", "T2 chain 1": "not shown", "T2 chain 2": "not shown", "test": "competition: inhibition of radiolabeled peptide binding to purified HLA"}, "[3]": {"target": "T3, HLA DQ molecule DQB1*0402 (human), P01909", "T3 chain 1": "not shown", "T3 chain 2": "not shown", "test": "inhibition of radiolabeled peptide binding to purified HLA class II"}, "[4]": {"target": "HLA DQ molecule DQB1*0502 (human)", "test": "inhibition of radiolabeled peptide binding to purified HLA class II"}, "[5]": {"target": "HLA DQ molecule DQB1*0503 (human)", "test": "inhibition of radiolabeled peptide binding to purified HLA class II"}, "[6]": {"target": "HLA DQ molecule DQB1*0202 (human)", "test": "inhibition of radiolabeled peptide binding to purified HLA class II"}, "[7]": {"target": "HLA DQ molecule DQB1*0602 (human)", "test": "inhibition of radiolabeled peptide binding to purified HLA class II"}, "[8]": {"target": "T4, HLA DP molecule DPB1*0401 (human)", "T4 chain 1": "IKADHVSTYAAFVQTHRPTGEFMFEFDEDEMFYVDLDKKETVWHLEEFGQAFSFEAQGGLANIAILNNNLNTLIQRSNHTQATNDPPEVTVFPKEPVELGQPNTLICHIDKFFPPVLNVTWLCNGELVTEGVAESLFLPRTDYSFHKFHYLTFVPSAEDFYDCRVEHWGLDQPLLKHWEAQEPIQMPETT", "T4 chain 2": "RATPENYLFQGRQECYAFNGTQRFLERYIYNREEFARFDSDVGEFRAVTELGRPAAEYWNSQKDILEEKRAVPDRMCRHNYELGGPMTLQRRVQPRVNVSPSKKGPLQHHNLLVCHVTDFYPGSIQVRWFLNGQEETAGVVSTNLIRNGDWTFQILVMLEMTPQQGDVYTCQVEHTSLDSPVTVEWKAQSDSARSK", "test": "inhibition of radiolabeled peptide binding to purified HLA DP"}, "[9]": {"target": "T5, HLA DP molecule DPB1*0201 (human)", "T5 chain 1": "T4 chain 1", "T5 chain 2": "T4 chain 2 with A36V, A55D, A56E, K69E", "test": "competition vs radiolabeled peptide, purified HLA-DP"}, "[10]": {"target": "T4, HLA DP molecule DPB1*0401 (human)", "test": "competition vs radiolabeled peptide, purified HLA-DP"}}, "note": "Changes are numbered by the printed parent chain."}
{"binder": "B1", "values": [{"measurement": "Region restriction(s) DR (ELISPOT response inhibited by locus-specific mAb)", "setting": "[1]", "value": 1, "unit": "donors"}]}
{"binder": "B2", "values": [{"measurement": "Region restriction(s) DR (ELISPOT response inhibited by locus-specific mAb)", "setting": "[1]", "value": 3, "unit": "donors"}]}
{"binder": "B3", "values": [{"measurement": "IC50", "setting": "HLA-DR DRB1*0301 (human)", "value": 32.1, "unit": "µM"}]}
{"binder": "B4", "values": [{"measurement": "IC50", "setting": "[2]", "value": 50, "unit": "µM"}]}
{"binder": "B5", "values": [{"measurement": "IC50", "setting": "[3]", "value": 0.102, "unit": "µM"}, {"measurement": "IC50", "setting": "[4]", "value": 50, "unit": "µM"}, {"measurement": "IC50", "setting": "[5]", "value": 50, "unit": "µM"}]}
{"binder": "B6", "values": [{"measurement": "IC50", "setting": "[6]", "value": 0.361, "unit": "µM"}, {"measurement": "IC50", "setting": "[7]", "value": 0.48, "unit": "µM"}]}
{"binder": "B7", "values": [{"measurement": "IC50", "setting": "[8]", "value": 1.61, "unit": "µM"}]}
{"binder": "B8", "values": [{"measurement": "IC50", "setting": "[8]", "value": 2.99, "unit": "µM"}]}
{"binder": "B9", "values": [{"measurement": "IC50", "setting": "[8]", "value": 2.5, "unit": "µM"}]}
{"binder": "B10", "values": [{"measurement": "IC50", "setting": "[9]", "value": 5.05, "unit": "µM"}, {"measurement": "IC50", "setting": "[10]", "value": 9.18, "unit": "µM"}]}
